These results are taken from patent US20220064329A1 (Novo Nordisk, published 2022).

Assay [1] concerns the target T1, sTLT1 (SEQ ID No: 3 with six histidine residues added at the C-terminus) (human, UniProt Q86YW5 16-162).
T1 construct: Soluble TLT-1 used in SPR
T1 sequence: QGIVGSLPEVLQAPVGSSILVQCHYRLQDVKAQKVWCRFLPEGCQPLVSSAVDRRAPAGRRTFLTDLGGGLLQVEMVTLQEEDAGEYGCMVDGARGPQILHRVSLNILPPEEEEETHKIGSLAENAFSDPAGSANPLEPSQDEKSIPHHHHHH
Put plainly: SPR, Biacore T200, 25 C; biAb captured on anti-human IgG, sTLT1 injected; 1:1 model. The method, then:
(§1) Binding of sTLT1 (corresponding to SEQ ID No: 3 with six histidine residues added at the C-terminus) to biAb from (Example 4) was probed by surface plasmon resonance (Biacore T200) at 25° C. Anti-human IgG was immobilised on a CM5 sensor chip (both supplied by GE Healthcare) using standard amine coupling chemistry. Purified biAbs according to Table 21 (1 nM) were injected at a flow rate of 10 μl/min for 1 min. Subsequently, sTLT1, between 0 and 60 μM, were injected at a flow rate of […] for 3 min to allow for binding to the biAb followed by a 3 min buffer injection allowing for dissociation from the biAb. The running buffer was prepared by diluting 10-fold the 10×HBS-P buffer (supplied by GE Healthcare) and supplemented with 1 mg/ml BSA and 5 mM CaCl₂) to give 10 mM HEPES, 150 mM NaCl, 0.05% v/v Polysorbate 20, pH 7.4, 5 mM CaCl₂), 1 mg/ml bovine serum albumin (BSA). The running buffer was also used for dilution of biAb and sTLT1 samples. Regeneration of the chip was achieved using recommended regeneration buffer consisted of 3M MgCl2 (supplied by GE Healthcare). Binding data were analysed according to a 1:1 model using BiaEvaluation 4.1 supplied by the manufacturer (Biacore AB, Uppsala, Sweden).
On the technique in general: In SPR one partner is held on a chip, and binding of the other changes the refractive index at the surface.

In assay [2] the target is T1, sTLT1 (SEQ ID No: 3 with six histidine …). The assay is described as follows: KD (TLT-1) listed for the biAbs of Example 30 (SPR value of Table 21). The method, then:
as §1

The target in assay [3] is T2, recombinant human activated FVII (FVIIa) (human, UniProt P08709 61-212; P08709 213-466, ten glutamate residues of the Gla domain may be gamma-carboxylated).
T2 sequence 1: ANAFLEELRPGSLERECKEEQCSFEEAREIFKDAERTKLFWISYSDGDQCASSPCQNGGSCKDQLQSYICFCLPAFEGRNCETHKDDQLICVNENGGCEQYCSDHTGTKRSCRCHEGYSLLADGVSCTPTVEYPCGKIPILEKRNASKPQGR
T2 sequence 2: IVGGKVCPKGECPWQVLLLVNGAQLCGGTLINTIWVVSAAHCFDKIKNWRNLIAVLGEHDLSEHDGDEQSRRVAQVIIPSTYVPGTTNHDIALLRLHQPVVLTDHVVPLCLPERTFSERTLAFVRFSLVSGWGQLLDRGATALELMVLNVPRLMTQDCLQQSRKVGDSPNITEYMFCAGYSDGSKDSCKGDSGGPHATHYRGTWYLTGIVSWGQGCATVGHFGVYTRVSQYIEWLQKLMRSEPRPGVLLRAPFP
Put plainly: cell-based or functional assay.

Assay [4] addresses T1, sTLT1 (SEQ ID No: 3 with six histidine …). Put plainly: dissociation constant listed with the stimulatory activities (SPR).
Assay [5] deals with T2, recombinant human activated FVII (FVIIa). The description is as above.
Assay [6] shares this target. The assay is described as follows: cell-based or functional assay. The source holds these as a separate data set.

Like-named read-outs stand apart in the source and are kept apart here.

B1: biAb0095 (bispecific antibody, human IgG4 S228P, kappa)
heavy 1: QVQLQESGPGLVKPSQTLSLTCTVSGYSISSDSAWSWIRQPPGKGLEWIGYIQYSGSTNYNPSLKSRVTISRDTSKNQFSLKLSSVTAADTAVYYCARSVNYYGNSFAVGYWGQGTLVTVSSASTKGPSVFPLAPCSRSTSESTAALGCLVKDYFPEPVTVSWNSGALTSGVHTFPAVLQSSGLYSLSSVVTVPSSSLGTKTYTCNVDHKPSNTKVDKRVESKYGPPCPPCPAPEFLGGPSVFLFPPKPKDTLMISRTPEVTCVVVDVSQEDPEVQFNWYVDGVEVHNAKTKPREEQFNSTYRVVSVLTVLHQDWLNGKEYKCKVSNKGLPSSIEKTISKAKGQPREPQVYTLPPSQEEMTKNQVSLTCLVKGFYPSDIAVEWESNGQPENNYKTTPPVLDSDGSFLLYSKLTVDKSRWQEGNVFSCSVMHEALHNHYTQKSLSLSLGK
light 1: EIVLTQSPATLSLSPGERATLSCRASQGISDYLHWYQQKPGEAPRLLIKYTSQPATGIPARFSGSGSGTDFTLTISSLEPEDFAVYYCQNGHSFPLTFGQGTKLEIKRTVAAPSVFIFPPSDEQLKSGTASVVCLLNNFYPREAKVQWKVDNALQSGNSQESVTEQDSKDSTYSLSSTLTLSKADYEKHKVYACEVTHQGLSSPVTKSFNRGEC
heavy 2: not shown
light 2: DIVMTQTPLSSPVTLGQPASISCRSSQSLVHRNGNTYFHWLQQRPGQPPRLLIYKVSNRFSGVPDRFSGSGAGTDFTLKISRVEAEDVGVYYCSQSTHVPYTFGQGTKLEIKRTVAAPSVFIFPPSDEQLKSGTASVVCLLNNFYPREAKVQWKVDNALQSGNSQESVTEQDSKDSTYSLSSTLTLSKADYEKHKVYACEVTHQGLSSPVTKSFNRGEC
notes: Duobody, constant domain type H (IgG4): anti-FVII(a) arm mAb0865, anti-TLT-1 arm mAb1047; also called mAb0865 x mAb1047
The Kd is a measure of binding affinity in units of concentration. For B1, the equilibrium dissociation constant (Kd) was found to be 75 nM in assay [1], 75 nM in assay [2], 75 nM in assay [4] and 0.06 nM in assay [5]. The “Stimulation (fold): FXa generated by FVIIa with lipidated TLT-1 and 100 nM biAb, relative to free FVIIa” value (“Stimulation (fold) … relative to free FVIIa” for short) in assay [3] turned out to be 13.9 fold.

B2: biAb0090 (bispecific antibody, human IgG4 S228P, kappa)
heavy 1: QVQLQESGPGLVKPSQTLSLTCTVSGYSISSDSAWSWIRQPPGKGLEWIGYIQYSGSTNYNPSLKSRVTISRDTSKNQFSLKLSSVTAADTAVYYCARSVNYYGNSFAVGYWGQGTLVTVSSASTKGPSVFPLAPCSRSTSESTAALGCLVKDYFPEPVTVSWNSGALTSGVHTFPAVLQSSGLYSLSSVVTVPSSSLGTKTYTCNVDHKPSNTKVDKRVESKYGPPCPPCPAPEFLGGPSVFLFPPKPKDTLMISRTPEVTCVVVDVSQEDPEVQFNWYVDGVEVHNAKTKPREEQFNSTYRVVSVLTVLHQDWLNGKEYKCKVSNKGLPSSIEKTISKAKGQPREPQVYTLPPSQEEMTKNQVSLTCLVKGFYPSDIAVEWESNGQPENNYKTTPPVLDSDGSFLLYSKLTVDKSRWQEGNVFSCSVMHEALHNHYTQKSLSLSLGK
light 1: EIVLTQSPATLSLSPGERATLSCRASQGISDYLHWYQQKPGEAPRLLIKYTSQPATGIPARFSGSGSGTDFTLTISSLEPEDFAVYYCQNGHSFPLTFGQGTKLEIKRTVAAPSVFIFPPSDEQLKSGTASVVCLLNNFYPREAKVQWKVDNALQSGNSQESVTEQDSKDSTYSLSSTLTLSKADYEKHKVYACEVTHQGLSSPVTKSFNRGEC
heavy 2: not shown
light 2: DIVMTQTPLSSPVTLGQPASISCRSSQSLVHRNGNTYFHWLQQRPGQPPRLLIYKVSNRFSGVPDRFSGSGAGTDFTLKISRVEAEDVGVYYCSQSTHVPYTFGQGTKLEIKRTVAAPSVFIFPPSDEQLKSGTASVVCLLNNFYPREAKVQWKVDNALQSGNSQESVTEQDSKDSTYSLSSTLTLSKADYEKHKVYACEVTHQGLSSPVTKSFNRGEC
notes: Duobody, constant domain type H (IgG4): anti-FVII(a) arm mAb0865, anti-TLT-1 arm mAb1049; also called mAb0865 x mAb1049
Regarding B2, the Kd in assay [1] was found to be 320 nM; in assay [2] it was 320 nM; in assay [4], 320 nM; in assay [5] it was 0.06 nM. Moreover, in assay [3], the “Stimulation (fold) … relative to free FVIIa” value worked out at 11.1 fold.

B3: biAb0001 (bispecific antibody, human IgG4 S228P, kappa)
heavy 1: QVQLQESGPGLVKPSQTLSLTCTVSGYSISSDSAWSWIRQPPGKGLEWIGYIQYSGSTNYNPSLKSRVTISRDTSKNQFSLKLSSVTAADTAVYYCARSVNYYGNSFAVGYWGQGTLVTVSSASTKGPSVFPLAPCSRSTSESTAALGCLVKDYFPEPVTVSWNSGALTSGVHTFPAVLQSSGLYSLSSVVTVPSSSLGTKTYTCNVDHKPSNTKVDKRVESKYGPPCPPCPAPEFLGGPSVFLFPPKPKDTLMISRTPEVTCVVVDVSQEDPEVQFNWYVDGVEVHNAKTKPREEQFNSTYRVVSVLTVLHQDWLNGKEYKCKVSNKGLPSSIEKTISKAKGQPREPQVYTLPPSQEEMTKNQVSLTCLVKGFYPSDIAVEWESNGQPENNYKTTPPVLDSDGSFLLYSKLTVDKSRWQEGNVFSCSVMHEALHNHYTQKSLSLSLGK
light 1: EIVLTQSPATLSLSPGERATLSCRASQGISDYLHWYQQKPGEAPRLLIKYTSQPATGIPARFSGSGSGTDFTLTISSLEPEDFAVYYCQNGHSFPLTFGQGTKLEIKRTVAAPSVFIFPPSDEQLKSGTASVVCLLNNFYPREAKVQWKVDNALQSGNSQESVTEQDSKDSTYSLSSTLTLSKADYEKHKVYACEVTHQGLSSPVTKSFNRGEC
heavy 2: not shown
light 2: DIVMTQTPLSSPVTLGQPASISCRSSQSLVHRQGNTYFHWLQQRPGQPPRLLIYKVSNRFSGVPDRFSGSGAGTDFTLKISRVEAEDVGVYYCSQSTHVPYTFGQGTKLEIKRTVAAPSVFIFPPSDEQLKSGTASVVCLLNNFYPREAKVQWKVDNALQSGNSQESVTEQDSKDSTYSLSSTLTLSKADYEKHKVYACEVTHQGLSSPVTKSFNRGEC
notes: Duobody, constant domain type H (IgG4): anti-FVII(a) arm mAb0865, anti-TLT-1 arm mAb1076; also called anti-FVII(a)/anti-TLT-1 bispecific antibody; mAb0865 x mAb1076
For the molecule B3, the Kd amounted to 2.9 nM in assay [1], 2.9 nM in assay [2], 2.9 nM in assay [4] and 0.06 nM in assay [5]. The “Stimulation (fold) … relative to free FVIIa” value in assay [6] and in assay [3] was 29.2 fold throughout.

B4: biAb0015 (bispecific antibody, human IgG4 S228P, kappa)
heavy 1: QVQLQESGPGLVKPSQTLSLTCTVSGYSISSDSAWSWIRQPPGKGLEWIGYIQYSGSTNYNPSLKSRVTISRDTSKNQFSLKLSSVTAADTAVYYCARSVNYYGNSFAVGYWGQGTLVTVSSASTKGPSVFPLAPCSRSTSESTAALGCLVKDYFPEPVTVSWNSGALTSGVHTFPAVLQSSGLYSLSSVVTVPSSSLGTKTYTCNVDHKPSNTKVDKRVESKYGPPCPPCPAPEFLGGPSVFLFPPKPKDTLMISRTPEVTCVVVDVSQEDPEVQFNWYVDGVEVHNAKTKPREEQFNSTYRVVSVLTVLHQDWLNGKEYKCKVSNKGLPSSIEKTISKAKGQPREPQVYTLPPSQEEMTKNQVSLTCLVKGFYPSDIAVEWESNGQPENNYKTTPPVLDSDGSFLLYSKLTVDKSRWQEGNVFSCSVMHEALHNHYTQKSLSLSLGK
light 1: EIVLTQSPATLSLSPGERATLSCRASQGISDYLHWYQQKPGEAPRLLIKYTSQPATGIPARFSGSGSGTDFTLTISSLEPEDFAVYYCQNGHSFPLTFGQGTKLEIKRTVAAPSVFIFPPSDEQLKSGTASVVCLLNNFYPREAKVQWKVDNALQSGNSQESVTEQDSKDSTYSLSSTLTLSKADYEKHKVYACEVTHQGLSSPVTKSFNRGEC
heavy 2: not shown
light 2: DIVMTQTPLSSPVTLGQPASISCRSSQSLVHRPGNTYFHWLQQRPGQPPRLLIYKVSNRFSGVPDRFSGSGAGTDFTLKISRVEAEDVGVYYCSQSTHVPYTFGQGTKLEIKRTVAAPSVFIFPPSDEQLKSGTASVVCLLNNFYPREAKVQWKVDNALQSGNSQESVTEQDSKDSTYSLSSTLTLSKADYEKHKVYACEVTHQGLSSPVTKSFNRGEC
notes: Duobody, constant domain type H (IgG4): anti-FVII(a) arm mAb0865, anti-TLT-1 arm mAb1038; also called mAb0865 x mAb1038
In the case of B4, the Kd in assay [1] was determined as 19 nM; in assay [2], 19 nM; in assay [4], 19 nM; in assay [5], 0.06 nM. Besides, in assay [3], the “Stimulation (fold) … relative to free FVIIa” value amounted to 18.7 fold.
